In patent publication US20030236190A1 (published 2003):
Positions of bridges follow the written chain, without caps; N, C: chain ends. No end group written: not given here.

Target: T1, Insulin receptor prepared according to Bass et al., 1996: soluble human insulin receptor-immunoglobulin heavy … (human, UniProt P06213 28-956)
T1 construct: extracellular domain; Eu3+-labelled in TR-FRET; also called IR; sIR-Fc; not shown: immunoglobulin heavy chain constant domains that replace the transmembrane and i
Assay: phage ELISA, vs IGF-1R

Binder | IR/IGF-1R Comparison
QPAPDGFYSALMKLIGRGGVS [20E2B-3-C8-IGFR] | 0.1 ratio
SSYGCDGFYLMLFSLGLVASQELEC (disulfide 5-25 (inferred)) [20C-3-A1-IGFR] | 0.1 ratio
IWATGDFYRLLSQLVMGRVGT [20E2B-2-88-IGFR] | 0.1 ratio
FFYRCLSRLLGGQLGSRLGLSCIGD (disulfide 5-22 (inferred)) [20C-3-E4-IGFR] | 0.2 ratio
QFYGCLLDLSLGVPSFGWRRRCITA (disulfide 5-22 (inferred)) [20C-3-A4-IGFR] | 0.1 ratio
LSSDGQFYRALNLLLQGSAGR [20E2B-2-B7-IGFR] | 0.1 ratio
SGAKVIVVTGDSGDPFYHKLSELLQGS [B6Eα-2-C10-IR] | 0.2 ratio
IQQELTFYDLLHRLVRSELGS [20E2B-3-D2-IGFR] | 0.1 ratio
DRDFCRFYERLTALVGGQVDGGWPC (disulfide 5-25 (inferred)) [20C-3-F6-IGFR] | 0.1 ratio

Further lines, results first:

IR/IGF-1R Comparison | Binder
0.1 ratio | DRAFYNGLRDLVGAVYGAWD [R20α-4-20C11-IR]
0.1 ratio | RFSTDGFYQYLLALVGGGPVG [20E28-1-A11-ICFR]
0.1 ratio | EGSGFYGYFFSLLGLQG [NNRPy-4-A9-IR]
0.1 ratio | RQGTGSFYLMLEQLLVGARGP [20E2B-4-G11-IGFR]
0.1 ratio | GGTEVDFYRALERLVRGQLGL [20E23-3-D8-IGFR]
0.1 ratio | QPDHSYFYSLLQELVGSEERL [20E2B-4-F9-IGFR]
0.1 ratio | LGVTDGFYAALGYLIHGVGQF [20E2B-3-D11-IGFR]
0.1 ratio | LKDGFYDYFWQRLHLGS [NNRPγ-4-B11-IR]
0.1 ratio | FYDAIDQLVRGSARAGGTRD [R20α-3-2082-IR]
0.1 ratio | NSRDGGFYLQLERLLGFPVTG [20E2B-3-D4-IGFR]

Target: T2, Soluble IGF-1R (R&D Systems, Cat. # 391-GR/CF); recombinant human IGF-1R (human, UniProt P08069 31-935)
T2 construct: extracellular domain; Eu3+-labelled in the TR-FRET assays; also called sIGF-1R; rhIGF-1R
Assay: phage ELISA, vs IR

Binder | IGF-1R/IR Comparison
QPAPDGFYSALMKLIGRGGVS [20E2B-3-C8-IGFR] | 8.9 ratio
SSYGCDGFYLMLFSLGLVASQELEC (disulfide 5-25 (inferred)) [20C-3-A1-IGFR] | 13.7 ratio
IWATGDFYRLLSQLVMGRVGT [20E2B-2-88-IGFR] | 7.2 ratio
FFYRCLSRLLGGQLGSRLGLSCIGD (disulfide 5-22 (inferred)) [20C-3-E4-IGFR] | 6 ratio
QFYGCLLDLSLGVPSFGWRRRCITA (disulfide 5-22 (inferred)) [20C-3-A4-IGFR] | 7.6 ratio
LSSDGQFYRALNLLLQGSAGR [20E2B-2-B7-IGFR] | 6.7 ratio
SGAKVIVVTGDSGDPFYHKLSELLQGS [B6Eα-2-C10-IR] | 5.3 ratio
IQQELTFYDLLHRLVRSELGS [20E2B-3-D2-IGFR] | 11.7 ratio
DRDFCRFYERLTALVGGQVDGGWPC (disulfide 5-25 (inferred)) [20C-3-F6-IGFR] | 14.1 ratio

Now from value to binder:

IGF-1R/IR Comparison | Binder
10.3 ratio | DRAFYNGLRDLVGAVYGAWD [R20α-4-20C11-IR]
9.7 ratio | RFSTDGFYQYLLALVGGGPVG [20E28-1-A11-ICFR]
7.1 ratio | EGSGFYGYFFSLLGLQG [NNRPy-4-A9-IR]
7 ratio | RQGTGSFYLMLEQLLVGARGP [20E2B-4-G11-IGFR]
11.3 ratio | GGTEVDFYRALERLVRGQLGL [20E23-3-D8-IGFR]
7.7 ratio | QPDHSYFYSLLQELVGSEERL [20E2B-4-F9-IGFR]
7.6 ratio | LGVTDGFYAALGYLIHGVGQF [20E2B-3-D11-IGFR]
15.5 ratio | LKDGFYDYFWQRLHLGS [NNRPγ-4-B11-IR]
12.9 ratio | FYDAIDQLVRGSARAGGTRD [R20α-3-2082-IR]
9.6 ratio | NSRDGGFYLQLERLLGFPVTG [20E2B-3-D4-IGFR]

Target: T1, Insulin receptor prepared according to …
Assay: phage ELISA vs milk

Binder | Ratio over Background
QPAPDGFYSALMKLIGRGGVS [20E2B-3-C8-IGFR] | 1.8 fold
SSYGCDGFYLMLFSLGLVASQELEC (disulfide 5-25 (inferred)) [20C-3-A1-IGFR] | 1.5 fold
IWATGDFYRLLSQLVMGRVGT [20E2B-2-88-IGFR] | 0.8 fold
FFYRCLSRLLGGQLGSRLGLSCIGD (disulfide 5-22 (inferred)) [20C-3-E4-IGFR] | 1.3 fold
QFYGCLLDLSLGVPSFGWRRRCITA (disulfide 5-22 (inferred)) [20C-3-A4-IGFR] | 1.2 fold
LSSDGQFYRALNLLLQGSAGR [20E2B-2-B7-IGFR] | 0.9 fold
SGAKVIVVTGDSGDPFYHKLSELLQGS [B6Eα-2-C10-IR] | 1.1 fold
IQQELTFYDLLHRLVRSELGS [20E2B-3-D2-IGFR] | 1.2 fold
DRDFCRFYERLTALVGGQVDGGWPC (disulfide 5-25 (inferred)) [20C-3-F6-IGFR] | 1.9 fold

The next lines start with the values.

Ratio over Background | Binder
3 fold | DRAFYNGLRDLVGAVYGAWD [R20α-4-20C11-IR]
1 fold | RFSTDGFYQYLLALVGGGPVG [20E28-1-A11-ICFR]
1.4 fold | EGSGFYGYFFSLLGLQG [NNRPy-4-A9-IR]
0.6 fold | RQGTGSFYLMLEQLLVGARGP [20E2B-4-G11-IGFR]
1.6 fold | GGTEVDFYRALERLVRGQLGL [20E23-3-D8-IGFR]
1.9 fold | QPDHSYFYSLLQELVGSEERL [20E2B-4-F9-IGFR]
1.6 fold | LGVTDGFYAALGYLIHGVGQF [20E2B-3-D11-IGFR]
1.2 fold | LKDGFYDYFWQRLHLGS [NNRPγ-4-B11-IR]
3.1 fold | FYDAIDQLVRGSARAGGTRD [R20α-3-2082-IR]
0.8 fold | NSRDGGFYLQLERLLGFPVTG [20E2B-3-D4-IGFR]

Target: T2, Soluble IGF-1R (R&D Systems, Cat. # …)
Assay: phage ELISA vs milk

Binder | Ratio over Background
QPAPDGFYSALMKLIGRGGVS [20E2B-3-C8-IGFR] | 15.6 fold
SSYGCDGFYLMLFSLGLVASQELEC (disulfide 5-25 (inferred)) [20C-3-A1-IGFR] | 20.8 fold
IWATGDFYRLLSQLVMGRVGT [20E2B-2-88-IGFR] | 5.7 fold
FFYRCLSRLLGGQLGSRLGLSCIGD (disulfide 5-22 (inferred)) [20C-3-E4-IGFR] | 7.7 fold
QFYGCLLDLSLGVPSFGWRRRCITA (disulfide 5-22 (inferred)) [20C-3-A4-IGFR] | 8.8 fold
LSSDGQFYRALNLLLQGSAGR [20E2B-2-B7-IGFR] | 6.1 fold
SGAKVIVVTGDSGDPFYHKLSELLQGS [B6Eα-2-C10-IR] | 5.8 fold
IQQELTFYDLLHRLVRSELGS [20E2B-3-D2-IGFR] | 12.4 fold
DRDFCRFYERLTALVGGQVDGGWPC (disulfide 5-25 (inferred)) [20C-3-F6-IGFR] | 26.1 fold

The next lines start with the values.

Ratio over Background | Binder
30.8 fold | DRAFYNGLRDLVGAVYGAWD [R20α-4-20C11-IR]
9.5 fold | RFSTDGFYQYLLALVGGGPVG [20E28-1-A11-ICFR]
10 fold | EGSGFYGYFFSLLGLQG [NNRPy-4-A9-IR]
4.5 fold | RQGTGSFYLMLEQLLVGARGP [20E2B-4-G11-IGFR]
17.7 fold | GGTEVDFYRALERLVRGQLGL [20E23-3-D8-IGFR]
14.7 fold | QPDHSYFYSLLQELVGSEERL [20E2B-4-F9-IGFR]
12.2 fold | LGVTDGFYAALGYLIHGVGQF [20E2B-3-D11-IGFR]
18.7 fold | LKDGFYDYFWQRLHLGS [NNRPγ-4-B11-IR]
39.9 fold | FYDAIDQLVRGSARAGGTRD [R20α-3-2082-IR]
7.9 fold | NSRDGGFYLQLERLLGFPVTG [20E2B-3-D4-IGFR]
